The target of the assay is SARS-CoV nucleocapsid (N) protein, full length, in the pM vector (pM-N) (SARS-CoV, UniProt P59595 1-422). As to the kind of experiment: two-hybrid.
Sequence of SARS-CoV nucleocapsid (N) protein, full length, in the pM vector (pM-N) (P59595 whole entry): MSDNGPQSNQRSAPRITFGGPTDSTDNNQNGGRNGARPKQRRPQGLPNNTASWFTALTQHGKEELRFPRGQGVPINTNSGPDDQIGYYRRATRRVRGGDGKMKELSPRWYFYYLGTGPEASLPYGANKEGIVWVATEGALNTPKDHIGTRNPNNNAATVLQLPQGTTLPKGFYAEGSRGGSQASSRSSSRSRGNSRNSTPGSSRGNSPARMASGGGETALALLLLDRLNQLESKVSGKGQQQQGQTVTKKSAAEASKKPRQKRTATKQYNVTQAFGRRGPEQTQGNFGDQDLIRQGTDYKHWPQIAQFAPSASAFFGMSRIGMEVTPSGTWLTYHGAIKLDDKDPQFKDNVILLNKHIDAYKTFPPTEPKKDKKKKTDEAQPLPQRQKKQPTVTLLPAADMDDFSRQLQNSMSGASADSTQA

B1: SARS-CoV membrane (M) protein in the pVP16 vector (pVP16-M) (natural protein)
chain: MADNGTITVEELKQLLEQWNLVIGFLFLAWIMLLQFAYSNRNRFLYIIKLVFLWLLWPVTLACFVLAAVYRINWVTGGIAIAMACIVGLMWLSYFVASFRLFARTRSMWSFNPETNILLNVPLRGTIVTRPLMESELVIGAVIIRGHLRMAGHSLGRCDIKDLPKEITVATSRTLSYYKLGASQRVGTDSGFAAYNRYRIGNYKLNTDHAGSNDNIALLVQ
As to B1, the “fold chemiluminescence (SEAP) over controls” value was over 5 fold.

Values taken from publication PMC7127797 (Virus Research, 2004).
